As usually defined, the Kd is the equilibrium constant for the complex coming apart. A high value points to weaker binding.

Here are results for 1 substance from PMC11203576.

In this experiment the target is SARS-CoV-2 spike protein RBD, original (wild-type), sfGFP fusion (SARS-CoV-2) (UniProt P0DTC2). Kind of experiment: SPR; Biacore T200; […] (0.01 M HEPES, 0.15 M NaCl, 3 mM EDTA, 0.05% surfactant P20, […]. Background: SPR reads the build-up and loss of mass on a sensor chip optically.

In turn, Jacalin (natural protein) yielded a Kd of 428 nM.
